Patent publication US20090005257A1

Tests used:
[1] = target: protein A (UniProt P38507); assay: phage ELISA on protein A, heated 80 C against unheated, three data points
[2] = target: protein A (UniProt P38507); assay: phage ELISA screen on protein A, heated 80 C against unheated (Section 4); mean of clones with this mutation

DP47 F100nV, sequence (VH): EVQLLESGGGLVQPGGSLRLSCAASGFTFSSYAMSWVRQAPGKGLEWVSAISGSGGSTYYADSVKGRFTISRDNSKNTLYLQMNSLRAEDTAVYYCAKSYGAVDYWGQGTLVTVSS

| Substance | Refoldability on phage (protein A binding retained after heating) [1] | mean % refolding (pA-ELISA) [2] |
| --- | --- | --- |
| DP47 F100nV/Y102S | 2% | – |
| DP47-G54P | – | 28% |
| DP47-F27C | – | 56% |
| DP47 F100nV | 2% | – |
